Results as given in patent US20180362926.

Tests used:
Assay in all cases: cell_activity
[1] = tested on: SBS68815 ZFN Qm5 in F1,F3,F5; FokI R416E; details: 55266-2A-68815, T cells, 12 ug mRNA
[2] = tested on: SBS68879 ZFN Qm5 in F1,F3,F5; FokI K525S; details: 55266-2A-68879, T cells, 12 ug mRNA
SBS53810 ZFN = details: pair 53810:55255, K562, 500 ng/ZFN
SBS55254 ZFN = details: pair 55248:55254, K562, 500 ng/ZFN
[3] = tested on: SBS68812 ZFN Qm5 in F1,F3 (nQm5s [sic]),F4; FokI R416E; details: 68812-2A-68813, T cells, 12 ug mRNA
[4] = tested on: SBS68876 ZFN Qm5 in F1,F3 (nQm5s [sic]),F4; FokI K525S; details: 68876-2A-68877, T cells, 12 ug mRNA
SBS55260 ZFN = details: pair 55248:55260, K562, 500 ng/ZFN
SBS55255 ZFN = details: pair 53810:55255, K562, 500 ng/ZFN
[5] = tested on: SBS68796 ZFN Qm5 in F1,F3 (nQm5s [sic]),F4; details: 68796-2A-68813, T cells, 12 ug mRNA; off-target at background
SBS53785 ZFN = details: pair 55229:53785, K562, 500 ng/ZFN
SBS55229 ZFN = details: pair 55229:53785, K562, 500 ng/ZFN
SBS68957 ZFN FokI K525S = details: pair 57071/68957, background corrected
SBS57531 ZFN = details: pair 72732/57531, background corrected
SBS57071 ZFN = details: pair 57071/68957, background corrected
SBS72748 ZFN FokI Q481D = details: pair 72748/68957, background corrected
SBS53759 ZFN = details: pair 55204:53759, K562, 500 ng/ZFN
SBS52742 ZFN = details: pair 52774:52742, K562, 500 ng/ZFN
SBS53909 ZFN = details: pair 53885:53909, K562, 500 ng/ZFN
SBS55287 ZFN = details: pair 53856:55287, K562, 500 ng/ZFN
SBS53863 ZFN = details: pair 53860:53863, K562, 500 ng/ZFN
SBS55204 ZFN = details: pair 55204:53759, K562, 500 ng/ZFN

AACAGGTAAGACAGGGGTCTAGCCTGGG (double strand) [TCRA site E right]
activity [1]: 97.6 % indels
activity [2]: 96.3 % indels

AGGATTCGGAACCCAATCACTG (double strand) [TCRA site of 53810]
activity (SBS53810 ZFN): 91.5 % NHEJ

CTCCTGAAAGTGGCCGGGTTTAATCTGC (double strand) [TCRA site D left]
activity (SBS55254 ZFN): 96.2 % NHEJ
activity [3]: 99.9 % indels
activity [4]: 99.2 % indels
activity (SBS55260 ZFN): 93 % NHEJ
activity (SBS55255 ZFN): 91.5 % NHEJ
activity [5]: 99.3 % indels

CTGTGGCCTGGAGCAACAAATCTGACTT (double strand) [TCRA site of 53785]
activity (SBS53785 ZFN): 93.6 % NHEJ

CTGTTGCTCTTGAAGTCCATAGACCTCA (double strand) [TCRA site of 55229]
activity (SBS55229 ZFN): 93.6 % NHEJ

GAGTAGCGCGAGCACAGCTAAGGCCACG (double strand) [B2M site of 57531]
activity (SBS68957 ZFN FokI K525S): 91.6 % indels
activity (SBS57531 ZFN): 95.8 % indels

GCCACGGAGCGAGACATCTCGGCCCGAA (double strand) [B2M site of 57071]
activity (SBS57071 ZFN): 91.6 % indels
activity (SBS72748 ZFN FokI Q481D): 93.4 % indels

GTGCTGTGGCCTGGAGCAACAAATCTGA (double strand) [TCRA site of 53759]
activity (SBS53759 ZFN): 87.7 % NHEJ

TCCTCCTGAAAGTGGCCGGGTTTAATCT (double strand) [TCRA site G right]
activity (SBS52742 ZFN): 84.4 % NHEJ
activity (SBS53909 ZFN): 90.2 % NHEJ

TTCAAGAGCAACAGTGCTGTGGCCTGGA (double strand) [TCRA site F right]
activity (SBS55287 ZFN): 74.8 % NHEJ
activity (SBS53863 ZFN): 87.3 % NHEJ

TTGCTCTTGAAGTCCATAGACCTCATGT (double strand) [TCRA site of 55204]
activity (SBS55204 ZFN): 87.7 % NHEJ
